{
  "source": "FireProtDB (doi:10.1021/bi002653y)",
  "settings": "Desulfovibrio desulfuricans (strain ATCC 27774 / DSM 6949 / MB), pH 7, 20 °C, GdnHCl, sodium phosphate 5 mM, reversible: yes, whole UniProt chain shown",
  "note": "Several values for one entry are separate records, joined by “and”; a condition that tells them apart may be missing. Equal entries are not always repeated.",
  "data": [
    {"protein": "Desulfoferrodoxin wild type, P22076 (protein) MPKHLEVYKCTHCGNIVEVLHGGGAELVCCGEPMKHMVEGSTDGAMEKHVPVIEKVDGGYLIKVGSVPHPMEEKHWIEWIELLADGRSYTKFLKPGDAPEAFFAIDASKVTAREYCNLHGHWKAEN", "values": [
      {"measurement": "denaturant midpoint (higher = more stable)", "setting": "CD, transition: 3", "value": "4.9 M and 5.1 M"},
      {"measurement": "unfolding free energy", "setting": "CD, transition: 3", "value": "11.3 kcal/mol and 12 kcal/mol"},
      {"measurement": "denaturant midpoint (higher = more stable)", "setting": "Fluorescence", "value": 2.3, "unit": "M"},
      {"measurement": "unfolding free energy", "setting": "Fluorescence", "value": 11.3, "unit": "kcal/mol"},
      {"measurement": "denaturant midpoint (higher = more stable)", "setting": "Fluorescence, transition: 3", "value": "1.7 M and 2.2 M and 2.9 M"},
      {"measurement": "unfolding free energy", "setting": "Fluorescence, transition: 3", "value": "10.6 kcal/mol and 10.9 kcal/mol"}
    ]}
  ]
}
